Test: yeast display, Sf9 membrane polyspecificity reagent, FACS + sequencing; frameworks hold sequencing errors
Method in brief: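 After 36–48 hours of galactose induction, yeast (Saccharomyces cerevisiae BJ5465) displaying a synthetic nanobody library were stained at 4 °C for 1 hour with 10% biotinylated, detergent-solubilized Sf9 membrane reagent. Streptavidin microbeads enriched the stained cells before FACS sorting into low and high (top ~1%) gates on anti-HA and streptavidin fluorescence. Each clone's polyreactivity label reflects its gate of origin.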

| Sequence | polyreactivity (PSR sort gate) |
| --- | --- |
| QVQLVESGGGLVQEGGSLPLSCAASGSIIWVYAMGWYRQPPGKERELFAAITSGVSTYYADSVKGRFTISRDNAKITVYFQFNRLKPEDSAVYDCAVVGGFRWIRMEYWGQGTQVSVSS | low polyreactivity |
| QVQLVESGGGLVQAGGSLRLSCAASGSTFIVYGMGWYRQAPGKEREFVAAITTRSGSTYYADSVKGRFTISRDNAKNTVYLQMNSLKPEDTAVYYCAAVPGTPRHDYWGQGTQVTVSS | high polyreactivity |
| QVHLVESGGGLVQAGGSLRLSCAASGGLFTSYDMGWYRQEPGKEREFVAGISDSGGSTYYADSVKGRFTISRDNAKNTVYLQMNSLKPEVTAVYYCAVESYRRYYYWGQGTQVTVSS | high polyreactivity |
| QVQLVESGGGLVQAGGSLRLSCAASGRTFVPYAMGWYRQAPGKERELVAAISARGSSTYYADSVKGRFTISRDNAKNTVYLQMNSLKPEDTAVYYCNAVGARVASATGMEYWGQGTQVTVSS | high polyreactivity |
| QVQLVESGGGLVQAGGSLRLSCAASGSIFAPYAMGWYRQAPGKERELVAAISWSGDSTYYADSVKGRFTISRDNAKNTVYLQMNSLKPEDTAVSYCAAAGGFDYDYWGQATQVTVSS | low polyreactivity |
| QVQLVESGGGLVQAGGSLRLSCAASGSTLYYNAMGWYRQAPGKERELVAAISWSGGSTYYADSVKGRFTISRDNAKNTVYLQMNSLKPEDTAVYYCAAELSSYYDYDYWGQGTQVTVSS | low polyreactivity |
| QVQLVESGGGLFQAGGSLRLSCAASGFTFSFNTMGWYRQAPVKERELVAAIRNNGGGTNYADSVKGRFTISRDKAMNTVYLQMNSLKPEDTAVYYCAADRIYAWFGRLYYWGQGTQVTGSS | low polyreactivity |
| QVQLVESGGGLVQAGGSLRLSCAASGNTFWSYAMGWYRQAPGKERELVAAISFSGGSTNYADSVKGRFTISRDNAKNTVYLQMNSLKPEDTAVYYCAAYFYAPLTYYSWYDYWGQGTQVTVSS | high polyreactivity |
| QDQLVESRGGLVQAGGSLRLSCAASGRIFLTNAMGWDRKAPGKERELVAAITSGGSTYYADSVKGRFTISRDNAKNTVFLQMNSVKPEDTAVYYCNADTDRYCPYEYDYWGQGTQVTVSS | low polyreactivity |
| QVQLVESGGGLVQAGGSLRLSCAASGITFRRYAMGWYRQAPGKERELVASITRGGSTSYADSVKGRFRFSRDNAKNTVYLQMNSLKPEDTAVYYCAADAFRGFYWGQGTQVTVSS | high polyreactivity |
| QVQLVESGGGLVQAGGSLRLSCAASGSIFYAYAMRWYRQAPGKERELVAVINSGGSTYYADSVKGRFTISRDNAKNTVYLQMHSLKPEDTAVYYCNATQDRGKYDYPPRGRGYYYWGQGTQVTVSS | high polyreactivity |
| QVHLVDSRGVLVQAGGSLRLSCAASGRTFFHYAMGWYRQAPGKERELVAAITYRGTSTYYADSVKARFTISRDYAKNTVYLQMNSLKPEATAVYYCNAYTTRGGWSYRGDSWGQGTQVTVSS | high polyreactivity |
| QVQLVETGGGLFQAGGSLRISCAASGFIFTLYAMGWYRQAPGKERELVAAINSGGSTDYADSVKGRFTISRDNAKNTVYLQMNSLKPEDTAVYYCAAGNTYAGSDYWGQGTQVTVSS | low polyreactivity |
| QVQLVESGGGLVQAGGSLRLICAASGSIFTSNVMGWYRQSPGKERELVAAITITGTTNYADSVKGRFTISRDNAKYTVYLLMNSLKPEDTAVYDCAARHKQHNRYDYWGQGTQVTVSS | low polyreactivity |
| QVQLEESGGGLVQAGGSLRLSCAASGLIYSSYAMGWYRQAPGKERELVAAIRSGGNTNYADSVKGRFTISRDNAKNTVYLQMNSLKPEDTAVYYCADGTYSRPYYRTFDHWGQGTQVTVSS | low polyreactivity |
| QVQLVESGGGLVQAGGSLRLSCAASGRIFRSYAMGWSIQAPGKERELVAAITSGGSTNYADSVKGRFTISRDNAKNTVYLQMNSLKPEDTAVYYCAARWPWYGKLRYYYWGQGTQVTVSS | high polyreactivity |
| QVQLVESGGGLVQAGGSLRLSCAASGSILWENAMGWYRQAPGKERELVATISVSGGGTYYADSVKGRFTISRDNAKNTVYLQMNSLKPEDTAVYYCAAPGFPSRNGFGYWGQGTQVTVSS | low polyreactivity |
| QVQLVESGGGLVQAGGSLRLSCAASGNTFWYNAMGWYRQSPGKERELVAAISYSGGGTYYADSVKGRFTISRDNAKNTVYLQMNSLKPEDTAVYYCAADTLQRAFVLNDYWGQGTQVTVSS | low polyreactivity |
| QVQLVESGGGLVQAGGSLRLSCAASGSTFGINTMGWYRQAPGKERELVASINRGGTTNYADSVKGRFTISRDNAKNTVYLQMNSLKPEDTAVYYCNARYYVTRLSRFRYGYWGQGTQVTVSS | high polyreactivity |
| QVQLVESAGGLVQAGGSLRLSCAASGNTFATYAMGWYRQAPGKERELVAAITWTGGRTRYADSVKVRFTISRDNAKNTVYLPMNSLKPEDTAVYYCAAKRYDTTYDSWGQGTQVTVSS | high polyreactivity |
| QVQLVESGGGLVQAGGSLRLSCAASGSIFKINAMGCYTPAPGKERELVATITRSTGTTYYADSVKGRFTNSRDTAKNSVYLQMNSLKPEDTAVYYCATDGDSNKLDYWGQGTQVTVSS | low polyreactivity |
| QVQLVESGGGLVQAGGSLRLSCADSGSTFLVYSMGWYRQAPGKERELVAVIDNGGDTYYADSVKGRFTISRDNAKNTVYLQMNSLKPEDTEVYYCAADLSYLGYWEYDYWGQGSQVTVSS | low polyreactivity |

| Sequence | polyreactivity (PSR sort gate) |
| --- | --- |
| QVHLVESGGGLVQAGGSLRLSCAASGSTFFKNAMGWYRQAAGKERELVAAITWSGDRTYADSVKGRFTISRDNAKYTVYLQMNSLKPEDTAVYYCNVDITGYEDDYWGQGTQVTVSS | low polyreactivity |
| QVQLVESGGGLVQAGGSLRLSCAASGRTFRRYNMGWYRQAPGKERELVAAITTSGGSTYYSDSVKGRFTISRDNAKNTVYLQMNSLIPEDTAVYYCAATRRYSGDYWGQGTQVSVSS | high polyreactivity |
| QVQLVESGGGLVQAGGSLRLSCAASGSTIYFYAMGWYRQAPGKERELVAAITWSGGRTYYADSVKGRFTISRDNAKNTVYLQMNSLKPEDTAVYYCAAVRPPLARLYVAAKRFDSWGQGTQVTVSS | low polyreactivity |
| QVQLVESGGGLVQAGGSLRLSCAASGSTYIVYAMGWYRQAPGKERELVAAIRGRGGSTYYADSVKGRFTISRDNAKNTVYLQMNSLKPEVTAVYYCAARGISPLEMYYWGQGTQVTVSS | high polyreactivity |
| QVQLVESGGGLVQAGGSLRLSCAASGSIFVRYAKGWYRQAPGKERELVAAIDIGGGTYYADSVKGRFTISRDNAKNTVYLQMNSLKPEDTAVYYCAADGFTEYIYLPYDYWGQGTQVTVSS | high polyreactivity |
| QVQLVESGGGLVQAGGSLRLSCAASGSTFVPYAIGWYRQAPGKERELVASITYSGGSTSYADSVKGRFTISRDNAKNTVYLQMNSLKPEDTAVYYCAAVPWVVYSGYDYWGQGTQVTVSS | low polyreactivity |
| QVQLVESGGGLVQAGGSLRLICAASGSTYHYAMGWYRQAPGKERELVASITWRGDTTYYADSVKGRFTISRDNAKYNVYLQMNSLKPEDTAVYYCAAYHFSFGWIRVDYWGQGTQVTVSS | high polyreactivity |
| QVQLVESGGALVQARGSLRLSSASSGSTFYPNAMGWYIQARGKEREFVAAISFSDGSTYYADSVKGRFTISRDNANNTVYLQMNSPKAEATAVYYCNKGASPDDYDYWGQGTQVTVSS | low polyreactivity |
| QVQLVESGGGLVQAGGSLRLSCAASGSIFRYYAMGWYRQAPGKEREFVAAINTNDAGTYYADSVKGRFTISRDYAKNTVYLQMNSLKPEDTAVYYCAADTGYRFWYDYWGQGTQVTVSS | high polyreactivity |
| QVQVVESGGGLVQAGGSLRLSCGASGSTFQGNAMGWYRPAPGKDRALDAAISRSGGSTYADSVKGRFTISRDNAKNTVYLQMNSLKPADTAVYYCAADALYWIGRMDYWGQGTQVTVSS | low polyreactivity |
| QVQLVESGGGLVQAGGSLRLTCDASGGIFAVNVMGWYRQAPWKERELVAAITSTGSTYYADSVKGRFTISRDNAKNTVYLQMNSLTPEDTAVYYCAADYVYYDSYDDTVFGYDYWGQGTQVTVSS | high polyreactivity |
| QVQLVESGGGLVQAGGSLRLSCAASGIIFTVYDMGWYRQPPGKERELVAAITWSGGSTYYADSVKGRFTISRDNAKNTVYLQMNSLKPEDTAVYYCIKVGRVWDVETDGDYDYWGQGTQVTVSS | low polyreactivity |
| QVQLVESGGGLVQAGGSLRLSCAASGSTFQTYAMGWYRQAPGKERELVASIDYSGGSTYYADSVKGRFTISRDNAKNTVYLQMNSLKPEDTAVYYCAADLSSDSSYSGYDYWGQGTQVTVSS | low polyreactivity |
| QVQLVESGGGLVQAGGSLRLSCAASGIICGDNALGLYRQAPGKEWELVAAISSSGTSTNYADSVKGRFTISRDNAKNTVYLQMNSLKPEETAVYYCAKDVLPPYPQSRSGGDYWGQGTQVTVSS | low polyreactivity |
| QVQLVESGGGLVQAGCSLRLTCAASGRTFITNAKGWYRQAPVKERELVAAISSGTGGRTNYADSVKGRFTISRDNAKNTVYLQMNSRKPEDTAVYYCAARSTKYYPYGYWGQGTQVTLSS | high polyreactivity |
| QVQLGESGGGLVQAGGSLRLSCAASGSTFGRYVMGWYRQAPAKERELVDAISKNAGSTYYADSVKGRFTISRDIAKKTVYLQMNSLKPEDTAVYYCAADWRTKGYDSLGQGTQVTVSS | high polyreactivity |
| QVQLVESWGGLVQAAASLRLICDASGRTIRWSAMGWYRPAPGKERELVATITTSGTPSYADSVKGRFTISRDNAKNTVYLQMNSLTPEDTAVYYCAADTYPWGGSSSYDWGQGTQVTVSS | high polyreactivity |
| QVQLVESGGGLVQAGGSLRLSCAASGYIFTVYAMGWYRQAPGKERELVAAINWSDGSTYYADSVKGRFTISRDNAKNTVYLQMNSLKPEDTAVYYCAAESRYQRYDYWGQGTQVTVSS | high polyreactivity |
| QVQLVESGGGLVQAGGSLRLSCAASGSTFTDYTMGWYRQAPGKERELVARIRSRGARTYYADSVKGRFTISRDNAKNTVYLQMNSLKPEDTAVYYCAAAGVRSYAGDYWGQGTQVTVSS | high polyreactivity |
| QVQLVESGGGLVQAGGSLRLSCAASGSIFSWYAMGWYRQAPGKERELVAAITSDGGTNYADSVKGRFTISRDNAKNTVYLQMNRLKPEDTAVYYCAADYWYSWRRSHYAHRYGYWGQGTQVTVSS | low polyreactivity |
| QVQLVESGGGLVQAGGSLRLSCAASGLIFGWYAMGWYRQAPGKERELVAAITRSGGSTYYADSVKGRFTISRDNAKNTVYLQMNSLKPEDTAVYYCAARSYVPSYDYWGQGTQVTVSS | high polyreactivity |
